Results on 3 molecules are retold here after patent publication US20240368223A1 (KAGOSHIMA UNIVERSITY, published 2024).

One experiment deals with T1, human IgG Fc (human, UniProt P01857-1 108-330 = IgG part).
T1 construct: domain: Fc; also called human IgG1 Fc
As to the kind of experiment: X-ray crystal structure of the Fc/peptide complex.

A further experiment concerns the target T2, bovine serum albumin (bovine, UniProt P02769 25-607).
T2 construct: also called BSA
As to the kind of experiment: size exclusion chromatography with fluorescence detection at 565 nm. The method, then:
The reaction was terminated by the addition of 10 μL of 1 M Tris-HCl (pH=7.0). Then, size exclusion chromatography was performed using Superdex™ 200 10/30GL 1.0 cm in diameter×30 cm (GE Healthcare Japan Corp.); flow rate: 0.3 ml/min; running buffer: PBS pH 7.4. Assay was conducted using a fluorescence detector RF-10A (Shimadzu Corp.) (excitation light: 541 nm, fluorescence: 565 nm).
In general terms: Size exclusion chromatography separates by hydrodynamic size, large species first.

Bridges are numbered along the chain shown (N, C = ends). Where no end group is shown, it is not given here. [ ]: non-standard residue; d: D form. hCys = N[C@@H](CCS)C(=O)O

T2 sequence (P02769 25-607 limits assumed): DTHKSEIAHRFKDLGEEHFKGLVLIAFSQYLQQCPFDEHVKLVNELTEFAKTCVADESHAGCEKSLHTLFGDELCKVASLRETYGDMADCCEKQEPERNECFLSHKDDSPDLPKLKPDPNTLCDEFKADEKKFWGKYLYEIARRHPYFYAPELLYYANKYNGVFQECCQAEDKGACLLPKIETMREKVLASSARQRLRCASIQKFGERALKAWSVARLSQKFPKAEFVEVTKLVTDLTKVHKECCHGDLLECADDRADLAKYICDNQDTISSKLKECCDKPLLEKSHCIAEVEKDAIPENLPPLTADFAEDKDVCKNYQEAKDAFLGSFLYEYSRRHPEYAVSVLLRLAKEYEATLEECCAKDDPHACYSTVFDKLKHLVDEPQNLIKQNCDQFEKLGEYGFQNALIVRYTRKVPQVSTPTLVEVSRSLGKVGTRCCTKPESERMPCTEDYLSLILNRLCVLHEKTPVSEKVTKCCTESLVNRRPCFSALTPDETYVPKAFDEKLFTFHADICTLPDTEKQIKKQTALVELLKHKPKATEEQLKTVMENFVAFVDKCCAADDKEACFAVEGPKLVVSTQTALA
Procedure for human IgG Fc: 70 μL of the crystallizing agent was dispensed thereto as a reservoir solution. The plate was hermetically sealed using PowerSeal CRISTAL VIEW (manufactured by Greiner Bio-One Co., Ltd.) and then left standing for approximately 2 weeks in a thermostat bath of 20° C. to obtain crystals.
The assay was carried out at an X-ray wavelength of 1 angstrom and an angle of oscillation of 1°/frame. Next, the diffraction intensity data was processed at a resolution of 3.0 angstroms using a diffraction intensity data processing program HKL2000 (manufactured by HKL Research Inc.).
A Fc moiety model registered as PDB accession code: 1DN2 in the Protein Data Bank (PDB, URL: http://www.rcsb.org/pdb/) was utilized as a search model for the molecular replacement method.

B1: cyclic homocysteine peptide G(HC)DCAYHRGELVWCT(HC)H-NH2 (peptide)
peptide: G[hCys]DCAYHRGELVWCT[hCys]H-NH2
modifications: disulfide 4-14, 2-16; N-terminus assumed
SMILES: CC(C)C[C@@H]1NC(=O)[C@H](CCC(=O)O)NC(=O)CNC(=O)[C@H](CCCNC(=N)N)NC(=O)[C@H](Cc2c[nH]cn2)NC(=O)[C@H](Cc2ccc(O)cc2)NC(=O)[C@H](C)NC(=O)[C@@H]2CSSC[C@H](NC(=O)[C@H](Cc3c[nH]c4ccccc34)NC(=O)[C@H](C(C)C)NC1=O)C(=O)N[C@@H]([C@@H](C)O)C(=O)N[C@H](C(=O)N[C@@H](Cc1c[nH]cn1)C(N)=O)CCSSCC[C@H](NC(=O)CN)C(=O)N[C@@H](CC(=O)O)C(=O)N2
notes: Peptide put into the crystals with Fc; Residue numbers in the text (Arg8) count on the 17-residue peptide
B1: the binding result with human IgG Fc was “binds”.

B2: fluorescent (5/6 TAMRA-PEG4) IgG-binding peptide modified with DSG (peptide)
peptide: GPDCAYHXGELVWCTFH
modifications: X at position 8 (lysine in Type I(R8K)) modified with DSG; N-terminal amino-PEG4 modified with 5/6 TAMURA succinimidyl ester (fluorescent dye); C-terminal amide; intramolecular S-S bond
notes: also called DSG-cross-linked peptide
Turning to B2, the binding result in the experiment with bovine serum albumin is “no binding”.

B3: fluorescent (5/6 TAMRA-PEG4) IgG-binding peptide modified with DSS (peptide)
peptide: GPDCAYHXGELVWCTFH
modifications: X at position 8 (lysine in Type I(R8K)) modified with DSS; N-terminal amino-PEG4 modified with 5/6 TAMURA succinimidyl ester (fluorescent dye); C-terminal amide; intramolecular S-S bond
notes: also called DSS-crosslinked peptide
Regarding B3, the binding result with bovine serum albumin is on record as “no binding”.
